Data reported in the supplement of paper PMC5998384.

Tests used:
HeLa Kyoto [1] = assay: solubility in G1/S (NP-40 vs SDS abundance) (log2 ratio); higher = more soluble; settings: cell cycle stage: G1/S
HeLa Kyoto [2] = assay: melting temperature (median over replicates), in situ; higher = more thermally stable
HeLa Kyoto [3] = assay: solubility change mitosis vs G1/S (difference of NP-40 vs SDS log2 ratios) (log2 ratio difference); higher = more soluble in mitosis
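For melting temperature (median over replicates), in situ in this document: HeLa Kyoto cells synchronized by double thymidine or nocodazole block, proteins quantified by TMT10plex mass spectrometry, three independent biological replicates.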
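For solubility change mitosis vs G1/S (difference of NP-40 vs SDS log2 ratios) in this document: synchronized HeLa Kyoto cells (double thymidine block for G1/S, nocodazole release for mitosis), protein amounts in NP-40 versus SDS lysates quantified by mass spectrometry, three biological replicates.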
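For solubility in G1/S (NP-40 vs SDS abundance) in this document: HeLa Kyoto cells arrested at G1/S by double thymidine block, proteins quantified by TMT10plex mass spectrometry in mild NP-40 versus SDS extracts, three biological replicates.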

Sequence | solubility in G1/S (log2) (HeLa Kyoto [1]) | melting temperature (HeLa Kyoto [2]; cell cycle stage: G1/S) | melting temperature (HeLa Kyoto [2]; cell cycle stage: mitosis) | solubility change mitosis (log2) (HeLa Kyoto [3])
MEQAPNMAEPRGPVDHGVQIRFITEPVSGAEMGTLRRGGRRPAKDARASTYGVAVRVQGIAGQPFVVLNSGEKGGDSFGVQIKGANDQGASGALSSDLELPENPYSQVKGFPAPSQSSTSDEEPGAYWNGKLLRSHSQASLAGPGPVDPSNRSNSMLELAPKVASPGSTIDTAPLSSVDSLINKFDSQLGGQARGRTGRRTRMLPPEQRKRSKSLDSRLPRDTFEERERQSTNHWTSSTKYDNHVGTSKQPAQSQNLSPLSGFSRSRQTQDWVLQSFEEPRRSAQDPTMLQFKSTPDLLRDQQEAAPPGSVDHMKATIYGILREGSSESETSVRRKVSLVLEKMQPLVMVSSGSTKAVAGQGELTRKVEELQRKLDEEVKKRQKLEPSQVGLERQLEEKTEECSRLQELLERRKGEAQQSNKELQNMKRLLDQGEDLRHGLETQVMELQNKLKHVQGPEPAKEVLLKDLLETRELLEEVLEGKQRVEEQLRLRERELTALKGALKEEVASRDQEVEHVRQQYQRDTEQLRRSMQDATQDHAVLEAERQKMSALVRGLQRELEETSEETGHWQSMFQKNKEDLRATKQELLQLRMEKEEMEEELGEKIEVLQRELEQARASAGDTRQVEVLKKELLRTQEELKELQAERQSQEVAGRHRDRELEKQLAVLRVEADRGRELEEQNLQLQKTLQQLRQDCEEASKAKMVAEAEATVLGQRRAAVETTLRETQEENDEFRRRILGLEQQLKETRGLVDGGEAVEARLRDKLQRLEAEKQQLEEALNASQEEEGSLAAAKRALEARLEEAQRGLARLGQEQQTLNRALEEEGKQREVLRRGKAELEEQKRLLDRTVDRLNKELEKIGEDSKQALQQLQAQLEDYKEKARREVADAQRQAKDWASEAEKTSGGLSRLQDEIQRLRQALQASQAERDTARLDKELLAQRLQGLEQEAENKKRSQDDRARQLKGLEEKVSRLETELDEEKNTVELLTDRVNRGRDQVDQLRTELMQERSARQDLECDKISLERQNKDLKTRLASSEGFQKPSASLSQLESQNQLLQERLQAEEREKTVLQSTNRKLERKVKELSIQIEDERQHVNDQKDQLSLRVKALKRQVDEAEEEIERLDGLRKKAQREVEEQHEVNEQLQARIKSLEKDSWRKASRSAAESALKNEGLSSDEEFDSVYDPSSIASLLTESNLQTSSC [CGN] | -0.601 | 53.6 °C | 53.6 °C | 0.648
MFAKLKKKIAEETAVAQRPGGATRIPRSVSKESVASMGADSGDDFASDGSSSREDLSSQLLRRNEQIRKLEARLSDYAEQVRNLQKIKEKLEIALEKHQDSSMRKFQEQNETFQANRAKMAEGLALALARKDQEWSEKMDQLEKEKNILTAQLQEMKNQSMNLFQRRDEMDELEGFQQQELSKIKHMLLKKEESLGKMEQELEARTRELSRTQEELMNSNQMSSDLSQKLEELQRHYSTLEEQRDHVIASKTGAESKITALEQKEQELQALIQQLSIDLQKVTAETQEKEDVITHLQEKVASLEKRLEQNLSGEEHLQELLKEKTLAEQNLEDTRQQLLAARSSQAKAINTLETRVRELEQTLQASEEQLQQSKGIVAAQETQIQELAAANQESSHVQQQALALEQQFLERTQALEAQIVALERTRAADQTTAEQGMRQLEQENAALKECRNEYERSLQNHQFELKKLKEEWSQREIVSVAMAQALEEVRKQREEFQQQAANLTAIIDEKEQNLREKTEVLLQKEQEILQLERGHNSALLQIHQLQAELEALRTLKAEEAAVVAEQEDLLRLRGPLQAEALSVNESHVTSRAMQDPVFQLPTAGRTPNGEVGAMDLTQLQKEKQDLEQQLLEKNKTIKQMQQRMLELRKTLQKELKIRPDNELFEVREKPGPEMANMAPSVTNNTDLTDAREINFEYLKHVVLKFMSCRESEAFHLIKAVSVLLNFSQEEENMLKETLEYKMSWFGSKPAPKGSIRPSISNPRIPWS [GOLGA1] | 0.556 | 49.5 °C |  | 0.0219
MFPRPLTPLAAPNGAEPLGRALRRAPLGRARAGLGGPPLLLPSMLMFAVIVASSGLLLMIERGILAEMKPLPLHPPGREGTAWRGKAPKPGGLSLRAGDADLQVRQDVRNRTLRAVCGQPGMPRDPWDLPVGQRRTLLRHILVSDRYRFLYCYVPKVACSNWKRVMKVLAGVLDSVDVRLKMDHRSDLVFLADLRPEEIRYRLQHYFKFLFVREPLERLLSAYRNKFGEIREYQQRYGAEIVRRYRAGAGPSPAGDDVTFPEFLRYLVDEDPERMNEHWMPVYHLCQPCAVHYDFVGSYERLEADANQVLEWVRAPPHVRFPARQAWYRPASPESLHYHLCSAPRALLQDVLPKYILDFSLFAYPLPNVTKEACQQ [CHST14] | 0.333 | 51.9 °C |  | -0.0549
MGDEKDSWKVKTLDEILQEKKRRKEQEEKAEIKRLKNSDDRDSKRDSLEEGELRDHRMEITIRNSPYRREDSMEDRGEEDDSLAIKPPQQMSRKEKAHHRKDEKRKEKRRHRSHSAEGGKHARVKEKEREHERRKRHREEQDKARREWERQKRREMAREHSRRERDRLEQLERKRERERKMREQQKEQREQKERERRAEERRKEREARREVSAHHRTMREDYSDKVKASHWSRSPPRPPRERFELGDGRKPGEARPAPAQKPAQLKEEKMEERDLLSDLQDISDSERKTSSAESSSAESGSGSEEEEEEEEEEEEEGSTSEESEEEEEEEEEEEEETGSNSEEASEQSAEEVSEEEMSEDEERENENHLLVVPESRFDRDSGESEEAEEEVGEGTPQSSALTEGDYVPDSPALSPIELKQELPKYLPALQGCRSVEEFQCLNRIEEGTYGVVYRAKDKKTDEIVALKRLKMEKEKEGFPITSLREINTILKAQHPNIVTVREIVVGSNMDKIYIVMNYVEHDLKSLMETMKQPFLPGEVKTLMIQLLRGVKHLHDNWILHRDLKTSNLLLSHAGILKVGDFGLAREYGSPLKAYTPVVVTLWYRAPELLLGAKEYSTAVDMWSVGCIFGELLTQKPLFPGKSEIDQINKVFKDLGTPSEKIWPGYSELPAVKKMTFSEHPYNNLRKRFGALLSDQGFDLMNKFLTYFPGRRISAEDGLKHEYFRETPLPIDPSMFPTWPAKSEQQRVKRGTSPRPPEGGLGYSQLGDDDLKETGFHLTTTNQGASAAGPGFSLKF [CDC2L1] | -0.672 | 46.5 °C | 50.3 °C | 0.114
MGEQPIFSTRAHVFQIDPNTKKNWVPTSKHAVTVSYFYDSTRNVYRIISLDGSKAIINSTITPNMTFTKTSQKFGQWADSRANTVYGLGFSSEHHLSKFAEKFQEFKEAARLAKEKSQEKMELTSTPSQESAGGDLQSPLTPESINGTDDERTPDVTQNSEPRAEPTQNALPFSHSSAISKHWEAELATLKGNNAKLTAALLESTANVKQWKQQLAAYQEEAERLHKRVTELECVSSQANAVHTHKTELNQTIQELEETLKLKEEEIERLKQEIDNARELQEQRDSLTQKLQEVEIRNKDLEGQLSDLEQRLEKSQNEQEAFRNNLKTLLEILDGKIFELTELRDNLAKLLECS [HOMER1] | 0.426 | 51 °C | 51.9 °C | 0.185
MGFLRRLIYRRRPMIYVESSEESSDEQPDEVESPTQSQDSTPAEEREDEGASAAQGQEPEADSQELVQPKTGCELGDGPDTKRVCLRNEEQMKLPAEGPEPEADSQEQVHPKTGCERGDGPDVQELGLPNPEEVKTPEEDEGQSQP [PAGE1] | -0.617 | 53.3 °C | 51.6 °C | 0.603
MGNLFGRKKQSRVTEQDKAILQLKQQRDKLRQYQKRIAQQLERERALARQLLRDGRKERAKLLLKKKRYQEQLLDRTENQISSLEAMVQSIEFTQIEMKVMEGLQFGNECLNKMHQVMSIEEVERILDETQEAVEYQRQIDELLAGSFTQEDEDAILEELSAITQEQIELPEVPSEPLPEKIPENVPVKARPRQAELVAAS [CHMP6] | 0.453 |  | 52.2 °C | 0.149
MGNTLTCCVSPNASPKLGRRAGSAELYCASDIYEAVSGDAVAVAPAVVEPAELDFGEGEGHHLQHISDREMPEDLALESNPSDHPRASTIFLSKSQTDVREKRKSNHLNHVSPGQLTKKYSSCSTIFLDDSTVSQPNLRTTVKCVTLAIYYHIKNRDANRSLDIFDERSHPLTREKVPEEYFKHDPEHKFIYRFVRTLFSAAQLTAECAIVTLVYLERLLTYAEIDICPTNWKRIVLGAILLASKVWDDQAVWNVDYCQILKDITVEDMNEMERHFLELLQFNINVPASVYAKYYFDLRSLADDNNLNFLFAPLSKERAQNLEAISRLCEDKDLCRAAMRRSFSADNFIGIQRSKAILS [CCNYL1] | -0.167 | 48.9 °C | 49.2 °C | -0.0896
